From the supplement of paper PMC7125110
± gives the standard error. Fewer inactive variants are shown than the library holds.

B1: glmS ribozyme (parent)
chain: AUAAAAGCGCCAGAACUACAGAAAUGUAGUUGACGAGGAGGAGGUUUAUCGAAUUUUCGGCGGAUGCCUCCAAA

Variants of: B1
Assay: self-cleavage kobs at 2500 uM GlcN6P; higher = faster cleavage; RNA array
Settings: with glucosamine-6-phosphate
In short: (§1)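 Ribozyme variants carrying barcodes were transcribed in situ on sequenced MiSeq chips by E. coli RNA polymerase and tracked at 37 °C with a hybridised Cy3 probe. They were exposed to 40 μM to 10 mM glucosamine-6-phosphate in HEPES/KCl/Mg(OAc)2 buffer. kobs came from exponential decay fits of normalised per-tile medians, and kcat and KM from weighted Michaelis–Menten fits.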

| Variant | self-cleavage kobs at 2500 uM GlcN6P [s⁻¹] |
| --- | --- |
| C16U U57A C70G | 5.1e-05 ± 2.1e-05 |
| U31G A33U C68G | < 1e-05 |
| A12G A48G U55C U57G | < 1e-05 |
| A6U A36C U55G | < 1e-05 |
| G13U A39U U56A | 0.000101 ± 2e-05 |
| G7A G51U U54G | < 1e-05 |
| A6U A12C C34U A48G C61G A64U | < 1e-05 |
| A15G U31A A53G | 0.01 ± 0.0031 |
| A14C U45G C71A | 4.43e-05 ± 1.3e-05 |
| G9U G35U G37C G51C | < 1e-05 |
| G7C G37A G63U | < 1e-05 |
| A12G A14U U49C C50G C61U | < 1e-05 |
| G9A G13C A33C G38C C61U G63U G66C | < 1e-05 |
| C16U U45G U54G | 0.0032 ± 0.001 |
| A20C A48G | 0.000134 ± 2.6e-05 |
| G43A G66U C67U C71U | < 1e-05 |
| G9A A36U A53G | < 1e-05 |
| A6G C50G C61U | 0.000108 ± 3.5e-05 |
| U55A U56A G66C | 0.000134 ± 3.4e-05 |
| G7C G9U G59U | < 1e-05 |
| A6U A14C G35A | < 1e-05 |
| C10G U30C G38C U47A | < 1e-05 |
| A12G G32A G60U | < 1e-05 |
| A15G U46A A48U | 5.82e-05 ± 2.3e-05 |

| Variant | self-cleavage kobs at 2500 uM GlcN6P [s⁻¹] |
| --- | --- |
| U2C A6C G60A | < 1e-05 |
| A39G U57A | 0.000309 ± 7e-05 |
| A15U C16U U45A | 0.00158 ± 0.00051 |
| C10A G35A G40C | < 1e-05 |
| A12U U31G U56A | 0.00599 ± 0.0012 |
| U30G G41U G44U | < 1e-05 |
| G9U C16G G29C A52U G59U | < 1e-05 |
| U46A A64G G66A C71G | 6.58e-05 ± 2.6e-05 |
| A14C G29C U30C A52U U65A | < 1e-05 |
| A12G U46G C71A | 5e-05 ± 2e-05 |
| A15U G35U C67G | < 1e-05 |
| C8U G29C G60U | < 1e-05 |
| A12U A39G U55C | 0.0482 ± 0.021 |
| C8A C11U C70U | < 1e-05 |
| A52G C61A C67U | 0.000197 ± 7.1e-05 |
| A6C G29U G40A U49G C68U | < 1e-05 |
| A15G G37C U57G C67U | < 1e-05 |
| C10U U57G C67U C70U | 6.12e-05 ± 2.7e-05 |
| A15C G40U A42C | < 1e-05 |
| C8A A14G C68U C70G | < 1e-05 |
| G7U G13A G38U A52C A53C | < 1e-05 |
| C16A U31A A39G U57C G60U | < 1e-05 |
| G29U A39U G59C C61A | < 1e-05 |
| A14G U30A G41C | 0.000337 ± 0.00013 |

| Variant | self-cleavage kobs at 2500 uM GlcN6P [s⁻¹] |
| --- | --- |
| G9C C10A G32A | < 1e-05 |
| C34A U55G A64G | < 1e-05 |
| G13A G44U A64U | < 1e-05 |
| A6C G44U U54G U57C | < 1e-05 |
| C8G A52G G59A | < 1e-05 |
| U31G A72G | 0.00235 ± 0.00096 |
| C8U U55G C61U C68A | < 1e-05 |
| G29A G32C A64U | < 1e-05 |
| C16G G29U A39U G51U C71U | < 1e-05 |
| C50U G60U A64C C70A | < 1e-05 |
| G38A G41U G43C A53U G59A A64C | < 1e-05 |
| A12C A36G A42U U45A G51U | < 1e-05 |
| C16A G43U G51A | < 1e-05 |
| C8G G38A A48G U57G | < 1e-05 |
| A6U A14C U45A A48G G66U | < 1e-05 |
| C16U A33G U69A C70G | 7.7e-05 ± 3.3e-05 |
| G7U U55C C71A | < 1e-05 |
| G44U A52C U56C G63A C67U | < 1e-05 |
| C8G A42U U49C A52G | < 1e-05 |
| A12U G44C C61G | < 1e-05 |
| A36C G37A G51C C61U | < 1e-05 |
| C11A C34G U49A | < 1e-05 |
| A42G A48U U54G | 0.000367 ± 0.0001 |
| A15G G35C G37C U49C | < 1e-05 |

| Variant | self-cleavage kobs at 2500 uM GlcN6P [s⁻¹] |
| --- | --- |
| U57C G60A G66C | < 1e-05 |
| A14C U45C | 0.000604 ± 0.00025 |
| U49G A53G U69G | 4.58e-05 ± 1.6e-05 |
| A14G A39U C67A | 0.0121 ± 0.003 |
| U31C G38A G40A | < 1e-05 |
| G38C U45C C50A G51C C67U | < 1e-05 |
| G9U C16U A33U | < 1e-05 |
| G41U U47G U49A G66C C71U | < 1e-05 |
| C11A A15U G44C | < 1e-05 |
| U55A C61A C68A | 0.00152 ± 0.00071 |
| A14U G43C A53U G59C | < 1e-05 |
| A12G G29U C58A G59U C67A | < 1e-05 |
| G37U A42C U55G | < 1e-05 |
| G38A U55C U56C | < 1e-05 |
| C8G G37C G43A G59A | < 1e-05 |
| G29C G41A | 7.06e-05 ± 3.1e-05 |
| A14C A48G C70U | 5.88e-05 ± 2.6e-05 |
| G40U U54G C68U | 0.000121 ± 4.4e-05 |
| C34G G59A | < 1e-05 |
| A6C A39G G51C | < 1e-05 |
| A15U U56G C70U | 0.000554 ± 0.00014 |
| U30C G35U U65C | < 1e-05 |
| A6G U31A | 0.000107 ± 3.2e-05 |
| C11A C34A G41A | < 1e-05 |

| Variant | self-cleavage kobs at 2500 uM GlcN6P [s⁻¹] |
| --- | --- |
| G41A A48U U57C G60A C61U C67U C71G | < 1e-05 |
| C10U A36G G41U G59U C68A | < 1e-05 |
| U57A C67A C71A | 0.000181 ± 4.1e-05 |
| C34G A36U G40A A64C C71G | < 1e-05 |
| A33C U56C G63U | < 1e-05 |
| G37C G60C C67A | < 1e-05 |
| C50A C67A C70U | 0.000109 ± 3.7e-05 |
| C11U U47C G62A | < 1e-05 |
| G29A G41U G62C | < 1e-05 |
| A36U U57G A64G C67U | < 1e-05 |
| G29U G32C U47C C67G | < 1e-05 |
| G29A A39U G40U | 0.000177 ± 3.8e-05 |
| G7C G13U U31G G37C G59A G60U | < 1e-05 |
| C16A G29A C70A | 6.39e-05 ± 2.4e-05 |
| G32C G41A G63A C70U | < 1e-05 |
| G9C C16G A39G | < 1e-05 |
| C34A G41A U47C | < 1e-05 |
| G40A U45C A53C | 3.19e-05 ± 1.5e-05 |
| C11U A15G G37A G60A | < 1e-05 |
| G9A G29C G38C A64U | < 1e-05 |
| C8G A12G U54G A64C U65A C71G | < 1e-05 |
| G29A G35U A53U | < 1e-05 |
| G29U G38C U56G | < 1e-05 |
| A6U A12C G51A | < 1e-05 |

| Variant | self-cleavage kobs at 2500 uM GlcN6P [s⁻¹] |
| --- | --- |
| A36C U54A C61A C67A | 6.51e-05 ± 2.2e-05 |
| A15U A42U G43C C61G U69A | < 1e-05 |
| A48U C50U U56C G63A A64C U65A | < 1e-05 |
| G43U C68A C70U C71A | 9.92e-05 ± 2.8e-05 |
| U30C C50G G63C | 0.00014 ± 5.2e-05 |
| C10A U45G U54G | < 1e-05 |
| C8U U55G U65G | < 1e-05 |
| C11U G29C U31A | < 1e-05 |
| G9C G40U G51U A52U | < 1e-05 |
| G40U G66U C67U | < 1e-05 |
| G43A G59C C68G | < 1e-05 |
| C10U G32U U69A | 4.03e-05 ± 1.7e-05 |
| A6G A14U U45C | < 1e-05 |
| A12G C34A U45A | < 1e-05 |
| G13A U31G A36G | < 1e-05 |
| C8U C10A A39C | < 1e-05 |
| U30C G35A C67G | < 1e-05 |
| G26C U47C G60C | < 1e-05 |
| G29U U56A C68U | 0.000413 ± 6.5e-05 |
| U31C A48G G63C C67U | < 1e-05 |
| G13U C19A C70U | 0.000171 ± 2.8e-05 |
| G38A A52G U57A C68A | 7.01e-05 ± 1.7e-05 |
| G44C U49A G60A G66U | < 1e-05 |
| U31C G32C G37U G41C U46A A53U U55A A64C | < 1e-05 |

| Variant | self-cleavage kobs at 2500 uM GlcN6P [s⁻¹] |
| --- | --- |
| G44C A48G A53C G59U | < 1e-05 |
| A6C U31C G59C G62U | < 1e-05 |
| G37U G60U | < 1e-05 |
| C8U G35A G63U | < 1e-05 |
| U31C A36C G63U C68A | 0.000118 ± 4e-05 |
| C8G A15G U31A G40C G63C | < 1e-05 |
| G29U U30A A33G G37U | < 1e-05 |
| A14C A33C U49A G66C | < 1e-05 |
| G32C A36U A53C | < 1e-05 |
| G7C G51U A53U G60U | < 1e-05 |
| C10G A42G G43A | < 1e-05 |
| A52U U55C A64G | 4.16e-05 ± 1.5e-05 |
| C16U G37U G41A | < 1e-05 |
| C11A C34A A42C C70A | < 1e-05 |
| G38C A39C U45A | < 1e-05 |
| C10U G40A C70G | < 1e-05 |
| G13U G29U U54G | 8.58e-05 ± 2.4e-05 |
| G9A A15U A48G C70G C71U | < 1e-05 |

Variants of: B1
Assay: self-cleavage kobs at 10000 uM GlcN6P; higher = faster cleavage; RNA array
Settings: with glucosamine-6-phosphate
In short: as §1

| Variant | self-cleavage kobs at 10000 uM GlcN6P [s⁻¹] |
| --- | --- |
| A39G U57A | 0.000335 ± 6.1e-05 |
| G9U C16G G29C A52U G59U | < 1e-05 |
| G7U G13A G38U A52C A53C | < 1e-05 |
| U31G A72G | 0.00988 ± 0.0032 |
| A14C U45C | 0.000368 ± 6.5e-05 |
| G29C G41A | 5.29e-05 ± 2.1e-05 |
| C34G G59A | < 1e-05 |
| A6G U31A | 0.000258 ± 6e-05 |
| A36U U57G A64G C67U | < 1e-05 |
| C8U U55G U65G | < 1e-05 |
| A12G C34A U45A | < 1e-05 |
| C16U G37U G41A | < 1e-05 |
